Data taken from patent publication US20250163168A1, “NOVEL ANTIBODIES AND ANTIBODY CONJUGATES FOR THE TREATMENT OF METABOLIC DISORDERS” (PFIZER INC., priority 2023, published 2025).

Experiments:
human GIPR (hGIPR) = biological target: T1, human GIPR (hGIPR) (Homo sapiens, UniProt P48546); assay: Functional in vitro GIPR antagonist potency assay (human GIPR-CHO cAMP, HTRF); type: cell-based; conditions: CHO-K1 cells stably expressing hGIPR, 1.5 nM hGIP
T1 sequence (P48546 22-466): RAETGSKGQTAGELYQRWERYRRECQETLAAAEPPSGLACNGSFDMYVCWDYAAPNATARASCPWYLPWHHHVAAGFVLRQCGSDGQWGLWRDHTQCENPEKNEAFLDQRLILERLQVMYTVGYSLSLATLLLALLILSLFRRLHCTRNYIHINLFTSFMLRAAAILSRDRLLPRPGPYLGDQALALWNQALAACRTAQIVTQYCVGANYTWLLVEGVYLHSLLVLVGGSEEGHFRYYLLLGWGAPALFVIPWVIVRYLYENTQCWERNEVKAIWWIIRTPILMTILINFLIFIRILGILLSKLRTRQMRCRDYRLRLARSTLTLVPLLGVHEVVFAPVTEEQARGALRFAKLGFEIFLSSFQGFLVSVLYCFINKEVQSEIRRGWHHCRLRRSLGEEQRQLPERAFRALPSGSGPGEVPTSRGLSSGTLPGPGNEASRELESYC
Description: Following agonist activation, hGIPR associates with the G-protein complex causing the Gas subunit to exchange bound Guanosine diphosphate (GDP) for guanosine triphosphate (GTP), followed by dissociation of the Gas-GTP complex. The activated Gas subunit can couple to downstream effectors to regulate the levels of second messengers or cAMP within the cell. Thereby, determination of intracellular cAMP levels allows for pharmacological characterization. Intracellular cAMP levels were quantified using a homogenous assay utilizing the Homogeneous Time Resolved Fluorescence (HTRF) technology from Perkin Elmer. The method was a competitive immunoassay between native cAMP produced by the cells and cAMP labelled with the acceptor dye, d2. The two entities competed for binding to a monoclonal anti-cAMP antibody labeled with cryptate. […] G2269) in 1× cAMP assay buffer was added to the assay plate (5 μL/well) at 4.5 nM (final concentration of 1.5 nM) and incubated for another 30 minutes at 37° C., after which intracellular cAMP levels were quantified with Cisbio cAMP-GS Dynamic kit (#62AM4PEC) with dilution of 20× of D2 and Eu in lysis buffer, mixed 1:1 by volume, and added 15 ul/well into plate, with a quick spin. […] The plate was then read on an Envision plate reader. Data were analyzed using the ratio of fluorescence intensity at 620 and 665 nm for each well.

[1] = system: diet induced obese (DIO) hGIPR mice; assay: Body weight gain prevention and food intake in DIO hGIPR mice on high fat diet; type: in vivo, mouse; conditions: 1 mg/kg s.c. twice a week, 60% high fat diet, compared to IgG control (FIG. 6)
Description: Male hGIPR mice between 18-21 weeks of age were utilized which had been on 60% high fat diet (D12492, Research Diets) for 14 weeks prior to the start of the study and were singly housed, maintained on a 12-hour light/12-hour dark cycle, and received food and water ad libitum. Prior to the start of the study, mice were randomized into each group based on body weight. […] Mice were continued on 60% high fat diet for the duration of the study. In FIG. 2, number of animals per group=10; Data are presented as the mean and error bars are SEM.
To determine statistical significance for the body weight endpoint, a generalized least squares linear model with appropriate fixed effects and correlation and variance structure are used for BW outcomes. All residuals were evaluated for meeting the normality assumption with the Shapiro-Wilks Test and Q-Q Plots and the sphericity and homoscedasticity assumption by the residual plots and Bartlett's test. […]
Male hGIPR mice between 18-21 weeks of age were utilized which had been on 60% high fat diet (D12492, Research Diets) for 14 weeks prior to the start of the study and were singly housed, maintained on a 12 hour light/12 hour dark cycle, and received food and water ad libitum. […] Percent change in body weight at each time point was calculated based on difference from pre-dose weight, and 24 hour food intake was measured during week 3. […]

Substance: 2G10: fully human monoclonal anti-GIPR antagonist antibody portion of AMG 133 (maridebart cafraglutide); benchmark antibody [reference compound]
- IC50 (human GIPR (hGIPR)): 30.4 nM
- body weight gain [1]: reduced body weight gain
